Measurements: article PMC5379935, “Crystal structure and RNA-binding properties of an Hfq homolog from the deep-branching Aquificae: conservation of the lateral RNA-binding mode” (Acta Crystallographica. Section D, Structural Biology, 2016)

What was measured:
[1] = molecular target: the molecule itself; experiment: cross-linking; formaldehyde, indirect (vapor-diffusion) method, 0.6 mg/ml Hfq in 25 mM HEPES pH 8.0, 500 mM NaCl, 310 K, 40 min; read out by MALDI-TOF MS
[2] = molecular target: the molecule itself; experiment: SEC-MALS; Superdex 200 Increase 10/300 GL, 50 mM Tris pH 8.0, 200 mM NaCl; Aae Hfq alone; monodisperse peak
Aae Hfq [3] = molecular target: T1, Aae Hfq (Aquifex aeolicus, UniProt O66512 1-80); experiment: fluorescence polarization; 10 mM Mg2+; per hexamer; 4-parameter fit, Hill 1.7; FP: 50 mM Tris pH 8.0, 500 mM NaCl, 5 nM FAM-RNA, +/- 10 mM MgCl2, 45 min, room temperature; conditions: protein: recombinant; tags: 6xHis removed by thrombin; residual N-terminal G-2 S-1 H0; chain copies: 6; label: 5'-FAM; single strand
T1 sequence: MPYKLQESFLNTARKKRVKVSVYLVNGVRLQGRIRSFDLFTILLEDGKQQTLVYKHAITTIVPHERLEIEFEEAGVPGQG

Aae Hfq [4] = molecular target: T1, Aae Hfq; experiment: fluorescence polarization; no Mg2+; per hexamer; 4-parameter fit, Hill 1.3; FP: 50 mM Tris pH 8.0, 500 mM NaCl, 5 nM FAM-RNA, +/- 10 mM MgCl2, 45 min, room temperature; conditions: protein: recombinant; tags: 6xHis removed by thrombin; residual N-terminal G-2 S-1 H0; chain copies: 6; label: 5'-FAM; single strand
Aae Hfq [5] = molecular target: T1, Aae Hfq; experiment: fluorescence polarization; 10 mM Mg2+; per hexamer; 4-parameter fit, Hill 2.4; FP: 50 mM Tris pH 8.0, 500 mM NaCl, 5 nM FAM-RNA, +/- 10 mM MgCl2, 45 min, room temperature; conditions: protein: recombinant; tags: 6xHis removed by thrombin; residual N-terminal G-2 S-1 H0; chain copies: 6; label: 5'-FAM; single strand
Aae Hfq [6] = molecular target: T1, Aae Hfq; experiment: fluorescence polarization; no Mg2+; per hexamer; 4-parameter fit, Hill 2.2; FP: 50 mM Tris pH 8.0, 500 mM NaCl, 5 nM FAM-RNA, +/- 10 mM MgCl2, 45 min, room temperature; conditions: protein: recombinant; tags: 6xHis removed by thrombin; residual N-terminal G-2 S-1 H0; chain copies: 6; label: 5'-FAM; single strand
Aae Hfq [7] = molecular target: T1, Aae Hfq; experiment: fluorescence polarization; no significant binding detected; FP: 50 mM Tris pH 8.0, 500 mM NaCl, 5 nM FAM-RNA, +/- 10 mM MgCl2, 45 min, room temperature; conditions: protein: recombinant; tags: 6xHis removed by thrombin; residual N-terminal G-2 S-1 H0; chain copies: 6; label: FAM; single strand

B1: Aquifex aeolicus Hfq (working construct after proteolytic removal of the 6xHis tag, 83 amino acids) (natural protein)
chain: GSHMPYKLQESFLNTARKKRVKVSVYLVNGVRLQGRIRSFDLFTILLEDGKQQTLVYKHAITTIVPHERLEIEFEEAGVPGQG
notes: three plasmid-derived residues (G-2, S-1, H0) that remain at the N-terminus after thrombin cleavage of the 6xHis tag; 83 residues, 9482.9 Da after tag removal (cleaved at G-2); Hexameric ring; two rings stack into a dodecamer in the P1 crystal, on cross-linking, and in solution with A18 RNA; also called Aae Hfq; (Hfq)6; not shown: His6, N-terminal, cleaved
In the case of B1, the “stoichiometry N” value [1] is reported as 12 and the “stoichiometry N” value [2] is reported as 6.

With UUUUUU (ssRNA) [FAM-U6] the Kd (Aae Hfq [3]) was 2.1 nM and the Kd (Aae Hfq [4]) was 21.3 nM.

For AAAAAAAAAAAAAAAAAA (ssRNA) [FAM-A18], the Kd (Aae Hfq [5]) was 9.5 nM and the Kd (Aae Hfq [6]) was 17.4 nM.

AAAAAA (ssRNA) [FAM-A6]: no binding (Aae Hfq [7]).

CCCCCC (ssRNA) [FAM-C6]: no binding (Aae Hfq [7]).
